Data set [1] in a line: Transdermal absorption (penetration into skin cells) test, Franz cell. In kind it is in vitro ADME. The conditions noted are these: nude mouse back skin 1.7 cm^2, 24 hours, HPLC and LC mass. As for the experimental part: Penetration of a compound, agent, etc. into skin cells is commonly referred to as transdermal absorption, and this will be the term used herein. The transdermal absorption test was conducted using the fusion peptide prepared in Example 1 (Reference: Lehman P A, Slattery J T, Franz T J. Percutaneous absorption of retinoids: Influence of vehicle, light exposure, and dose, J. Invest Dermatol., 91; 56–61. 1998).
Specifically, skin on the back of a female nude mouse 8 weeks of age was cut to a specific depth and to an area of 1.7 cm^2, and the fusion peptide was applied thereto. After 24 hours, the receptor solution and material absorbed in the skin in the back of the mouse were extracted with a transdermal absorption measuring instrument (Franz cell), and quantitatively analyzed using high performance liquid chromatography (HPLC) and liquid chromatography mass (LC mass) techniques. That is, these techniques were used to measure the amount of the compound of Chemical Formula 1 of the present invention that underwent transdermal absorption. […] Example 5: Allergy Test of a Tat-human Type-I collagen DP fusion peptide (LLNA)(SEQ ID NO: 10)

Data set [2] relates to wrinkles on the outer corners of the eyes (crow's-feet). Kind of data set: Anti-aging effects, O/W emulsion applied to crow's-feet of human subjects. It counts as in vivo. The conditions noted are these: 29 women in their thirties, 3 months, one time each day. How it is done:
In order to examine anti-aging effects of the Tat-human Type-collagen DP prepared in Example 1, an O/W emulsion comprising the compound of Chemical Formula 1 of the present invention and a control were each applied to human subjects. In particular, the O/W emulsion and control were coated on wrinkles on the outer corners of the eyes (i.e., crow's-feet) of 29 women in their thirties. Application was performed for 3 months, one time each day. Visual observation of anti-aging effects, if any, was performed and ranked according to a scale of four possibilities—no improvement, little improvement, medium improvement, and significant improvement.

In a further data set the test system is Balb/c mice. Kind of data set: Allergy test (LLNA, murine local lymph node assay). It counts as in vivo, mouse. The conditions noted are these: 0.5% and 1.0% solutions in ethanol, 50 μl to both ears for 3 days, [3H]-methylthymidine; versus control. As for the experimental part:
An experiment using ethanol as a carrier was selected for a safety test of the compound of Chemical Formula 1 when used as a cosmetic raw material [Reference: Kimber (1990): Identification of contact allergens using the murinelocal lymph node assay, J. Appl. Toxicol. 10(3); 173–180]. A control that uses cosmetic material for an anti-aging agent and the compound of Chemical Formula 1 were prepared in 0.5% and 1.0% solutions. 50 μl of the solution was applied to both ears of Balb/c mice for 3 days, and then the auricular lymph nodes were removed from the mice. The lymph nodes were pulverized to a monocell state, and radioisotope [3H]-methylthymidine was added thereto, after which a resulting material was cultured for 24 hours. Subsequently, amplification of cells (dpm, disintegrations per minute) was measured using a β-scintillation counter (Beckman LS 6000 TA, USA).

Another data set deals with guinea pigs. Kind of data set: Skin irritation patch test. The conditions noted are these: O/W emulsion, 48 hours closed patch. In kind it is in vivo, guinea pig. As for the experimental part: In order to test skin irritation of the compound of Chemical Formula 1, a patch test using guinea pigs was conducted [Reference: Draize, J. H. (1959): Dermal toxicity. Assoc. Food and Drug Officials, US. Appraisal of the safety of chemicals in Food, Drugs, and Cosmetics., pp 46–59, Texas State Dept. of Health, Austin, Tex. Federal Register (1973): Method of testing primary irritant substances 38(187): pp 1500–1541]. The compound represented by Chemical Formula 1 was prepared in an O/W emulsion of various concentrations. Fur on the back of the guinea pigs where the sample was to be coated was removed, and the area was allowed to adapt to the surroundings for 24 hours in order to minimize skin irritation that may be caused by the removal of the fur.
Next, a sample coating region was established (1.5 cm×1.5 cm), a sample and gauze were applied thereto, and the coated region was sealed with a thin paper of solid material in order to prevent loss, after which the sealing material was held firmly in place with an elastic bandage. The guinea pigs were maintained in this state for 48 hours then all the applied materials were removed. At two different time periods of 2 hours and 24 hours after removal of the closed patch (50 hours and 72 hours after patch application), the degree of irritation was determined and indicated by an irritation index (P11: primary cutaneous irritation index) and by an irritation degree scale.

The subject of another data set is human fibroblast. In words: Collagen synthesis effects test. The conditions noted are these: summary statement of test results. It counts as cell-based. As for the experimental part: In order to measure the usefulness of the Tat-human Type-collagen DP prepared in Example 1 as a skin anti-aging agent, it was tested by comparing the preparation with ascorbic acid, which is known to be a material having an exceptional collagen synthesis effect.
In this test, a human fibroblast of the same number was cultured on a 24-well plate for 24 hours, and the sample as a concentration of 10^−4 to 10^−7 was applied thereto. After 2 hours, proline introduced tridium was applied thereto and a resulting mixture was cultured for 24 hours. Next, an amount of collagen newly-synthesized and newly-secreted from fibroblast was measured a cpm (count per minute) of proline introduced tridium using a medium, and an amount of csp (collagenous sensitive protein) was calculated. A comparative measurement of the collagen synthesis effect was then performed (David F. W. and Wilson Harvey, Analytical Biochemistry (1979); 96, 220 224, Atsushi Hatamochi, Masashi Ono, Hiroaki Ueki, and Masayoshi Namba., J. Invest Dermatol. (1991) 96, 473 477).

The test system of a further data set is V79-4 cells. Kind of data set: Cytotoxicity MTT test. It counts as cell-based, Chinese hamster. How it is done: In order to identify the safety of the compound of Chemical Formula 1 when used as a cosmetic raw material, V79–4 cells (Chinese hamster, continuous cell line of lung tissue fibroblast) were cultured and an MTT test was conducted to test cytotoxicity for the compound [Reference: Mossaman T. (1983). Rapid colorimetric assay for cellular growth & survival: application to proliferation & cytotoxicity assays. Journal of Immunological Methods 65, 55–63).
Background: Tetrazolium dyes change colour on reduction, which living cells bring about.

Take “KKKKKKKKKKTKS (Tat-human Type-I collagen DP fusion peptide)”: the transdermal absorption capability entry in data set [1] is “superior transdermal absorption capability”. Further, the “anti-aging effects on crow's-feet (visual observation)” value in data set [2] is given as “exhibits anti-aging effects on crow's-feet”. Also, the “possibility of allergy induction” value in the data set on Balb/c mice is “lower possibility of allergy induction than the control”. The “Irritation Degree” value with guinea pigs (Concentration 0.01 %), in the data set on guinea pigs (Concentration 0.1 %) and in the data set on guinea pigs (Concentration 0.5 %) was “Minute irritation” throughout. Also, the figures for the “Irritation Index (PII)” value with guinea pigs (Concentration 0.01 %), in the data set with guinea pigs (Concentration 0.1 %) and in the data set on guinea pigs (Concentration 0.5 %) were 0.52, 0.53 and 0.53, respectively. The “synthesis of collagen and hyaluronic acid” value in the data set with human fibroblast is “superior synthesis of collagen and hyaluronic acid”. Besides, the “cytotoxicity (MTT)” value was “negligent level of toxicity” in the data set on V79-4 cells (concentration of 0.01 or less) and “very weak toxicity” with V79-4 cells (concentration of 0.1 (%, w.v) or more).

For the origin of these results see patent publication US7094407B2, “Fusion peptide containing human type-1 collagen derived peptide, preparation thereof, and skin anti-aging cosmetic composition comprising the same” (LG Household & Health Care Ltd., priority 2002, dated 2006).
